Reference: publication PMC10308935 (Journal of Virology, 2023)

Tests used:
[1] = target: SARS-CoV-2 Omicron BA.2 spike receptor-binding domain (SARS-CoV-2 Omicron BA.2, strain); assay: BLI
[2] = target: SARS-CoV-2 Omicron BA.5 spike receptor-binding domain (SARS-CoV-2 Omicron BA.5, N440K | L452R | F486V); assay: BLI

B1: MO1 monoclonal antibody (recombinant human IgG) (antibody, V domains shown)
VH: EVQLVESGGGMVQPGRSLRLSCAASGFTFDDYAMHWVRQIPGKGLEWVSGISWNSGDIGYADSVKGRFTISRDNAKNSLHLQMNSLRAEDTALYYCAKDKTYDSPGYFLNSFDYWGQGTLVTVSS
VL: DIQMTQSPSSLSASVGDRVTITCRASQGISSYLVWYQQKPGKAPKFLIYAASTLQSGVPSRFSGSGSGTDFTLTISSLQPEDFATYYCQQLYSYPITFGQGTRLEIK
- Kd [1]: 3.3 nM
- Kd [2]: 11 nM
